Source: patent US20030148447A1 (ZymoGenetics, published 2003)
Values belong to the binder of their own block, whether it stands above or below them.

Columns and labels:
[1] = biological target: factor present in the activated monkey spleen conditioned media; assay: cell-based or functional assay
[2] = biological target: factor present in the activated CD3+ selected human T-cell conditioned media; assay: cell-based or functional assay

inhibition of conditioned-medium-driven BaF3/Zalpha11 cell growth; soluble receptor concentration giving complete inhibition [1]: 10 µg/mL
titration of soluble receptor; lowest concentration completely inhibiting BaF3/Zalpha11 growth [1]: 20 ng/mL
inhibition of conditioned-medium-driven BaF3/Zalpha11 cell growth; soluble receptor concentration giving complete inhibition [2]: 10 µg/mL
titration of soluble receptor; lowest concentration completely inhibiting BaF3/Zalpha11 growth [2]: 20 ng/mL
B1: zalpha11CEE soluble receptor (zalpha11 extracellular domain with C-terminal Glu-Glu tag) (receptor)
chain: not shown
modifications: first Trp of the WSXWS motif C-mannosylated in ~46% of molecules (BHK)

inhibition of conditioned-medium-driven BaF3/Zalpha11 cell growth; soluble receptor concentration giving complete inhibition [1]: 10 µg/mL
titration of soluble receptor; lowest concentration completely inhibiting BaF3/Zalpha11 growth [1]: 20 ng/mL
inhibition of conditioned-medium-driven BaF3/Zalpha11 cell growth; soluble receptor concentration giving complete inhibition [2]: 10 µg/mL
titration of soluble receptor; lowest concentration completely inhibiting BaF3/Zalpha11 growth [2]: 20 ng/mL
B2: zalpha11CFLG soluble receptor (zalpha11 extracellular domain with C-terminal FLAG tag) (receptor)
chain: not shown
modifications: first Trp of the WSXWS motif C-mannosylated in ~35% of molecules (BHK)
